Experimental findings from paper PMC10897489 are described below.

In data set [1] the target is SARS-CoV-2 N protein (NCAP_SARS2) (SARS-CoV-2, UniProt P0DTC9 1-419). The data set is described as follows: ITC. As to conditions: protein: recombinant; chain copies: 2.
For data set [2], the target named is FXR1 215-360 (KH1-KH2) (UniProt P51114 215-360). Put plainly: ITC; ITC: 50 mM sodium phosphate pH 7.5, 150 mM NaCl, 0.5 mM TCEP, 25 °C. As to conditions: protein: recombinant; tags: His or GST (not specified which). (In general: In ITC the heat of successive injections is recorded.)

B1: NF1 RNA (ssRNA)
RNA: GGAUCAUUUUGUUGGACUCAAUUUCAACUCUAACUUUAACUUUGCAUUGGUUGGACACCU
For orientation: Kd means the equilibrium constant for the complex coming apart. Consider B1, for which, in data set [1], the equilibrium dissociation constant (Kd) came out at 380 ± 40 nM. In data set [2], the binding result was “no binding”.
